Assay [1] addresses globular head of H5 HA, HA1 fragment between residue D55 and E271 (F55–271) of A/Anhui/1/2005 (Influenza A virus A/Anhui/1/2005 (H5N1)). The assay can be described thus: crystal structure. The conditions noted are these: both partners purified.
Assay [2] has as its target HA fragment between residues I60 and G263 (F60–263) of A/Anhui/1/05, displayed on yeast (Influenza A virus A/Anhui/1/2005 (H5N1), strain). The assay can be described thus: flow cytometry on cells. The note with it: one partner purified.

Here are results for five molecules from article PMC4686829 (Nature Communications, 2015).

B1: AVFluIgG03 Fab (Fab, V domains shown)
VH: EVQLLESGGGLVQPGGSLRVSCTNSGFTFSNYAMSWVRQAPGKGLEWVSAISGNGGSGTYYADSVKGRFTISRDNSKNTMYLQMNSLRAEDTAVYYCVRDDSYDGGGHYGLHNWFDSWGQGTLVTVSS
VL: SVLTQPPSVSGAPGQRVTISCTGSSSNIGAGYDVHWYQQLPGTAPKLLIYGNSNRPSGVPDRFSGSKSGTSASLAITGLQAEDEADYYCQSYDSSVVVFGGGTKLEIK
notes: also called Fab of AVFluIgG03; AVFulgG03
For B1, the binding result in assay [1] is “binds”.

B2: AVFluIgG03, full-length human IgG1 (antibody, V domains shown)
VH: B1 VH
VL: B1 VL
notes: IgG1; also called AVFulgG03; AVFluIg03; source: 293 T cells, transient transfection, purified (Protein A agarose)
For the molecule B2, in assay [2], the binding result is given as “binds”.

B3: 100F4, full-length human IgG1 (antibody, V domains shown)
VH: QLQLQESGLGLVKPSETLSLTCTVSGDSVSSGSYYWSWLRQPPGKGLEWIGNMHGSGHTNYNPSLKSRVTITPDTSKNHFSLRLSSVTAADTAVYYCARALLTTVTTFEYWGQGTLVTVSS
VL: QSALTQPPSVSGAPGQRVTIPCTGGSSNIGAGYSVHWYQQLPGTAPKLLIYGSNSRPSGVPDRFSGSKSGTSASLAITGLRPEDEADYYCQSYDSSLSGSQVFGAGTRVTVL
notes: IgG1; source: 293 T cells, transient transfection, purified (Protein A agarose)
Consider B3, for which, in assay [2], the binding result is “binds”.

B4: 65C6 Fab (Fab, V domains shown)
VH: EVQLVQSGAEVKKPGESLRISCKGFAYSSTYFWISWVRQMPGKGLEWMGRIDPTDSYINYSPSFQGHVTISVDRSISTVYLQWSSLKASDTAMYYCAYHRRGHFYGSGSAWDWFESWGQGTLVTVSS
VL: EIVLTQSPLTLSVSPGERATLSCRASQSVSSNLAWYQQMPGQAPRLLIYGASTRATGIPARLSGSASGTEFTLTISSLQSEDFAVYYCQQYNNWPYTFGQGTKLEIK
For the molecule B4, the binding result in assay [1] is listed as “binds”.

B5: 65C6, full-length human IgG1 (antibody, V domains shown)
VH: B4 VH
VL: B4 VL
notes: as for B3
On to B5, for which the binding result in assay [2] was “binds”.
